This note sets out measurements from paper PMC5390082 (Scientific Reports, 2015).

In this test the target is T1, Trifunctional enzyme (TFP), ECHA/ECHB, immunopurified from human macrophage extract (human (endogenous in THP-1), UniProt P40939 37-763; P55084 34-474).
T1 construct: also called immunopurified human TFP
The experiment in a line: SPR; Biacore 3000; […]; 20 mM Tris-HCl pH 8.0, 50 mM NaCl, 5 mM EDTA, 0.005% P20, 1 mM DTT; […]. The note with it: both partners purified. (Surface plasmon resonance follows binding to a sensor surface in real time, without labels.)

T1 sequence (P40939 37-763, chain 1 of 2): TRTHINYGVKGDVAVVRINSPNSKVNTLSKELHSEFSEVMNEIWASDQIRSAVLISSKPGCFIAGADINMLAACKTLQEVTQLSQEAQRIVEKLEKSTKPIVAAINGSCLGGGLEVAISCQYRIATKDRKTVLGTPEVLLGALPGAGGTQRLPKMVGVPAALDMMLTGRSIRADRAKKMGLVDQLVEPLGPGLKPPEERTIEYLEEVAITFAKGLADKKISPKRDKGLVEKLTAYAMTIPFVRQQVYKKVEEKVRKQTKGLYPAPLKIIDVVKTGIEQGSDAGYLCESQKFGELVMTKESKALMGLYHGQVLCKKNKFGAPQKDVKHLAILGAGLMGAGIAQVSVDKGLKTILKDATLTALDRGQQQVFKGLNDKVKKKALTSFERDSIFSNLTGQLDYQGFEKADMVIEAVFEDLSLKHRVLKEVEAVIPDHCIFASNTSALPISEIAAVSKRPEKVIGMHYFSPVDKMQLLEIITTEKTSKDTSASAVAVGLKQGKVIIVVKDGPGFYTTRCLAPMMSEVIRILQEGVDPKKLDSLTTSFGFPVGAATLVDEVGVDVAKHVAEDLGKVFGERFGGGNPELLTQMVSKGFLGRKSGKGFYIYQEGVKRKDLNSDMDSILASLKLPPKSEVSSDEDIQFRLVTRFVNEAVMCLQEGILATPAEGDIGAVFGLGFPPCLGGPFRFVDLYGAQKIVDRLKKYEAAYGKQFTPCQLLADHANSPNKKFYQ
T1 sequence (P55084 34-474, chain 2 of 2): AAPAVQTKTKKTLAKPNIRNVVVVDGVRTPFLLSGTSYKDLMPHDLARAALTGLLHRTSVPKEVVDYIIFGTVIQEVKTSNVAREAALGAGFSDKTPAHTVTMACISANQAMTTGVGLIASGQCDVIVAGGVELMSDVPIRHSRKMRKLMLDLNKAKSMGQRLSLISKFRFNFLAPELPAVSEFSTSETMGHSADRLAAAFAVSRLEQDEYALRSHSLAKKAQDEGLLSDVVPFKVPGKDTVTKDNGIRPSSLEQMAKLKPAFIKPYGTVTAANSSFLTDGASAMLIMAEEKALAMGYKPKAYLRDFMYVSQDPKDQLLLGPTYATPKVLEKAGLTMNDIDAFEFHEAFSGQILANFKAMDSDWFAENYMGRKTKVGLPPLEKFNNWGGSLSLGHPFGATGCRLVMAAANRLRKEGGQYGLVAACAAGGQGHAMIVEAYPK

B1: Mycobacterium tuberculosis protein tyrosine phosphatase PtpA wt (enzyme)
chain: MSDPLHVTFVCTGNICRSPMAEKMFAQQLRHRGLGDAVRVTSAGTGNWHVGSCADERAAGVLRAHGYPTDHRAAQVGTEHLAADLLVALDRNHARLLRQLGVEAARVRMLRSFDPRSGTHALDVEDPYYGDHSDFEEVFAVIESALPGLHDWVDERLARNGPS
With B1, the binding result is recorded as “binds”.
